Assay results: PMC4765788, “Role of a chalcone isomerase-like protein in flavonoid biosynthesis in Arabidopsis thaliana” (Journal of Experimental Botany, 2015)

Target: the molecule itself
Assay: native gel or EMSA; purified recombinant protein run on a non-denaturing PAGE gel

B1: recombinant TT5 protein (chalcone isomerase), His-tagged (enzyme, Arabidopsis thaliana, UniProt P41088 1-246, looked up)
chain: MSSSNACASPSPFPAVTKLHVDSVTFVPSVKSPASSNPLFLGGAGVRGLDIQGKFVIFTVIGVYLEGNAVPSLSVKWKGKTTEELTESIPFFREIVTGAFEKFIKVTMKLPLTGQQYSEKVTENCVAIWKQLGLYTDCEAKAVEKFLEIFKEETFPPGSSILFALSPTGSLTVAFSKDDSIPETGIAVIENKLLAEAVLESIIGKNGVSPGTRLSVAERLSQLMMKNKDEKEVSDHSVEEKLAKEN
notes: TT5, chalcone isomerase, Arabidopsis thaliana, At3g55120; ORF cloned into pQE-30; pQE-30 usually adds an N-terminal His6 tag (surmised); also called CHI
stoichiometry N: 4
